Where “and” joins values, the source holds several entries; their conditions need not be identical. Equal values may be shown once.
Tests used:
IL-4 receptor [1] = biological target: T1, IL-4 receptor (Homo sapiens (Human), UniProt P24394); experiment: cell-based or functional assay
IL-4 receptor [2] = biological target: T1, IL-4 receptor; experiment: cell-based or functional assay; remark: listed apart in the source

Mean EC50, nM (TF1 bioassay; 1-Spray Dry Powder) (IL-4 receptor [1]): 0.496 nM
Mean EC50, nM (TF1 bioassay; 2-Spray Dry Powder) (IL-4 receptor [1]): 0.518 nM
Mean EC50, nM (TF1 bioassay; 3-Spray Dry Powder) (IL-4 receptor [1]): 0.577 nM
Mean EC50, nM (TF1 bioassay; 4-Spray Dry Powder) (IL-4 receptor [1]): 0.555 nM
Mean EC50, nM (TF1 bioassay; mIL-4 Standard) (IL-4 receptor [1]): 0.524 nM
Functionality by Bioassay (specific activity), EC 50 (nM); stability batch, 1 month (5° C.) (IL-4 receptor [2]): 0.178 nM and 0.138 nM
Functionality by Bioassay (specific activity), EC 50 (nM); stability batch, 1 month (30° C./65%) (IL-4 receptor [2]): 0.191 nM and 0.184 nM
Functionality by Bioassay (specific activity), EC 50 (nM); stability batch, 3 month (5° C.) (IL-4 receptor [2]): 0.302 nM
Functionality by Bioassay (specific activity), EC 50 (nM); stability batch, 3 month (30° C./65%) (IL-4 receptor [2]): 0.3 nM
Functionality by Bioassay (specific activity), EC 50 (nM); stability batch, T0 (IL-4 receptor [2]): 0.246 nM and 0.263 nM
Functionality by Bioassay, Standard EC 50 (nM); reference standard (IL-4 receptor [2]): 0.264 nM and 0.194 nM and 0.305 nM
B1: human interleukin-4 mutein met-R121D/Y124D (ligand)
chain: MHKCDITLQEIIKTLNSLTEQKTLCTELTVTDIFAASKNTTEKETFCRAATVLRQFYSHHEKDTRCLGATAQQFHRHKQLIRFLKRLDRNLWGLAGLNSCPVKEANQSTLENFLERLKTIMDEKDSKCSS
